# Source: the Human Domainome abundance scans (Beltran et al. 2025)
# ± gives the uncertainty stated by the source.
# B1: Zinc finger homeobox protein 4, residues 2183 to 2238; numbered along this chain, Q86UP3 (parent)
# chain: SSRTRFTDYQLRVLQDFFDTNAYPKDDEIEQLSTVLNLPTRVIVVWFQNARQKARK
# Variants of: B1
# Assay: abundance fitness (aPCA) (normalised: wild type 0, dead -1); higher = more abundant; growth selection in yeast, the domain comes from the species named
# Settings: Homo sapiens
row,Variant,abundance fitness
1,SSRTRFTDYQLRVLQDFFDTNAYPKDDEIIQLSTVLNLPTRVIVVWFQNARQKARK,-0.221 ± 0.19
2,SSRTRFTDYQLRVLQDFFDTNAYPKDDEIQQLSTVLNLPTRVIVVWFQNARQKARK,0.175 ± 0.14
3,SSRTRFTDYQLRVLQDFFDTNAYPKDDEIEQLSTVLNLPTRVIVVSFQNARQKARK,-0.403 ± 0.17
4,SSRTRFTDYQLRVLQDFFDTNAYPKDDEIEQLSTVLNLPTRVIVVGFQNARQKARK,-0.559 ± 0.16
5,SSRTRFTDYQLRVLQDFFDTNAYPKDDEIEQLSTVLNLPTRVIVVWFQNARQKAQK,-0.1 ± 0.34
6,SSRTRFTDYQLRVLQDFFDTNAYPKDDEIEQLSTVLNLPTRVIVVWFQNARQKACK,-0.104 ± 0.22
7,SSRTRFTDYQLRVLQDFFDTNAYPKDDEIEQLSTVLNLPTRVIVVWFQNARQKAEK,-0.129 ± 0.19
8,SSRTRFTDYQLRVLQDFFDTNAYPKDDEIEQLSTVLNLNTRVIVVWFQNARQKARK,-0.127 ± 0.23
9,SSRTRFTDYQLRVLQDFFDTNAYPKDDEIEQLSTVLNLTTRVIVVWFQNARQKARK,-0.041 ± 0.11
10,SSRTRFTDYQLRVLQDFFDTNAYPKDDEIEQLSTVLNLGTRVIVVWFQNARQKARK,0.014 ± 0.077
11,SSRTRFTDYQLRVLQDFFDTNAYPKDDEIEQLSTVLNLRTRVIVVWFQNARQKARK,-0.097 ± 0.077
12,SSRTRFTDFQLRVLQDFFDTNAYPKDDEIEQLSTVLNLPTRVIVVWFQNARQKARK,0.261 ± 0.19
13,SSRTRFTDSQLRVLQDFFDTNAYPKDDEIEQLSTVLNLPTRVIVVWFQNARQKARK,0.14 ± 0.099
14,SSRTRFTDWQLRVLQDFFDTNAYPKDDEIEQLSTVLNLPTRVIVVWFQNARQKARK,0.02 ± 0.11
15,SSRTRFTDYQLRVLQDFFDTNAYPKDDEIEQLSTVLNLPTRVIVVWFQNKRQKARK,-0.347 ± 0.2
16,SSRTRFTDYQLRVLQDFFDTNAYPKDDEIEQLSEVLNLPTRVIVVWFQNARQKARK,-0.165 ± 0.11
17,SSRTRFTDYQLRVLQDFFDTNAYPKDDEIEQLSRVLNLPTRVIVVWFQNARQKARK,-0.069 ± 0.081
18,SSRTRFTDYQLRVLQDFFDTNAYPKDDEIEQLSMVLNLPTRVIVVWFQNARQKARK,-0.145 ± 0.12
19,SSRTRFTDYQLRVLQDFFDTNAYFKDDEIEQLSTVLNLPTRVIVVWFQNARQKARK,-0.792 ± 0.17
20,SSRTRFTDYQLRVLQDFFDTNAYHKDDEIEQLSTVLNLPTRVIVVWFQNARQKARK,-0.703 ± 0.21
21,SSRTRFTDYQLRVLQDFFDTGAYPKDDEIEQLSTVLNLPTRVIVVWFQNARQKARK,-0.387 ± 0.077
22,SSRTRFTDYQLRVLQDFFDTAAYPKDDEIEQLSTVLNLPTRVIVVWFQNARQKARK,-0.176 ± 0.087
23,SSRTRFTDYQRRVLQDFFDTNAYPKDDEIEQLSTVLNLPTRVIVVWFQNARQKARK,-0.26 ± 0.17
24,SSRTRFTDYQDRVLQDFFDTNAYPKDDEIEQLSTVLNLPTRVIVVWFQNARQKARK,0.066 ± 0.27

row,Variant,abundance fitness
1,SSRTRFTDYQLRVLQDFFDTNAYPKDDEIEQLSTVLNLPTRVIVVWFQNARQKRRK,-0.179 ± 0.1
2,SSRTRFTDYQLRVLQDFFDTNAQPKDDEIEQLSTVLNLPTRVIVVWFQNARQKARK,-0.173 ± 0.12
3,SSRTRFTDYQLRVLQDFFDTNAEPKDDEIEQLSTVLNLPTRVIVVWFQNARQKARK,0.361 ± 0.13
4,SSRTRFTDYQLRVLQDFFDTNAYPKDDEIEQLSTVLNLPTRVIVVWFTNARQKARK,-0.082 ± 0.23
5,SSRTRFTDYQLRVLQDFFDTNAYPKDDEIEQLSTVLNLPTRVIVVWFWNARQKARK,-0.262 ± 0.18
6,SSRTRFTDYQLRVLQDFFDTNAYPKDDEIEQLSTVLNLPTRVIVVWFINARQKARK,-0.281 ± 0.29
7,SSRTRFTDYQLRFLQDFFDTNAYPKDDEIEQLSTVLNLPTRVIVVWFQNARQKARK,-0.056 ± 0.14
8,SSRTRFTDYQLRWLQDFFDTNAYPKDDEIEQLSTVLNLPTRVIVVWFQNARQKARK,-0.377 ± 0.36
9,SSRTRFTDYQLRVLQDFFDTNAYPKDDEIEQLSTVLNLPTRVIVVWFQNARVKARK,0.026 ± 0.19
10,PSRTRFTDYQLRVLQDFFDTNAYPKDDEIEQLSTVLNLPTRVIVVWFQNARQKARK,-0.575 ± 0.29
11,FSRTRFTDYQLRVLQDFFDTNAYPKDDEIEQLSTVLNLPTRVIVVWFQNARQKARK,0.106 ± 0.2
12,SSRTRFTDYQLRVLQDFFDTNAYPKDDEIEQLSTVLMLPTRVIVVWFQNARQKARK,-0.202 ± 0.14
13,SSRTRFTDYQLRVLQDFFDTNAYPKDDEIEQLSTVLILPTRVIVVWFQNARQKARK,-0.172 ± 0.2
14,SSRTRFTDYQLRVLQDFFDTNAYPKDDEIEQLSTVLALPTRVIVVWFQNARQKARK,-0.02 ± 0.091
15,SSRTRFTDYQLRVLQDFFDTNAYPKDDEIEQLSTVLGLPTRVIVVWFQNARQKARK,-0.126 ± 0.078
16,SSRTRFTDYQLRVLQDFFDTNAYPKDDEIEQRSTVLNLPTRVIVVWFQNARQKARK,-0.861 ± 0.1
17,SSRTRFTDYQLRVLQDFFDTNAYPKDDEIEQTSTVLNLPTRVIVVWFQNARQKARK,-1.05 ± 0.17
18,SSLTRFTDYQLRVLQDFFDTNAYPKDDEIEQLSTVLNLPTRVIVVWFQNARQKARK,0.358 ± 0.089
19,SSYTRFTDYQLRVLQDFFDTNAYPKDDEIEQLSTVLNLPTRVIVVWFQNARQKARK,0.198 ± 0.16
20,SSRTRFTDYQLRVLQDFFDTNAYPKEDEIEQLSTVLNLPTRVIVVWFQNARQKARK,-0.163 ± 0.12
21,SSRTRFTDYQLRVLQDFFDTNAYPKYDEIEQLSTVLNLPTRVIVVWFQNARQKARK,-0.234 ± 0.22
22,SSRTRFTDYQLRVLQDFFDTNAYPKDDEIEQLSTVLNLPTRVIVVWFQNADQKARK,-0.304 ± 0.26
23,SSRTRFTDYQLRVLQDFFDTNAYPKDDEIEQLSTVLNLPTRVIVVWFQNAPQKARK,-0.898 ± 0.24
24,SSRTRFTDYQLRVLQDFFDTNAYPKDDEIEQLSTVLNLPTRVIVVWFQNAHQKARK,-0.462 ± 0.25

row,Variant,abundance fitness
1,SSRTRFTDYQLRVAQDFFDTNAYPKDDEIEQLSTVLNLPTRVIVVWFQNARQKARK,-0.793 ± 0.1
2,SSRTRFTDYQLRVLQDFFDTNAYPKDDEIEQLSTVLNWPTRVIVVWFQNARQKARK,-0.735 ± 0.14
3,SSRTRFTDYQLRVLQDFFDTNAYPKDDEIEQLSTVLNFPTRVIVVWFQNARQKARK,-0.277 ± 0.087
4,SSRTRFTDYQLRVLQDFFDTNAYPKDDEIEQLSTVNNLPTRVIVVWFQNARQKARK,-0.801 ± 0.1
5,SSRTRFTDYQLRVLQDFFDTNAYPKDDEIEQLSTVENLPTRVIVVWFQNARQKARK,-1.19 ± 0.28
6,SSRTRFTDYQLRVLQDFFDTNAYPKDDEIECLSTVLNLPTRVIVVWFQNARQKARK,-0.221 ± 0.13
7,SSRTRFTDYQLRVLQDFFDTNAYPKDDEQEQLSTVLNLPTRVIVVWFQNARQKARK,-0.447 ± 0.12
8,SSRTRFTDYQLRVLQDFFDTNAYPKDDECEQLSTVLNLPTRVIVVWFQNARQKARK,-0.015 ± 0.15
9,SSRTRFTDYQLRVLQDFFDTNAYPKDDELEQLSTVLNLPTRVIVVWFQNARQKARK,-0.023 ± 0.083
10,SSRTRFTDYQLRVLQDFFDTNAYPKDDEHEQLSTVLNLPTRVIVVWFQNARQKARK,-0.633 ± 0.2
11,SSRTRFTDYQLRVLQDFFDTNAYPKDDEIEQLSTVLNLPTRVIVVWFQTARQKARK,0.073 ± 0.14
12,SSRTRFTDYILRVLQDFFDTNAYPKDDEIEQLSTVLNLPTRVIVVWFQNARQKARK,-0.391 ± 0.091
13,SSRTRFTDYQLYVLQDFFDTNAYPKDDEIEQLSTVLNLPTRVIVVWFQNARQKARK,-0.702 ± 0.18
14,SSRTRFTDYQLIVLQDFFDTNAYPKDDEIEQLSTVLNLPTRVIVVWFQNARQKARK,-0.623 ± 0.17
15,SSRTRFTDYQLRVLQDFFATNAYPKDDEIEQLSTVLNLPTRVIVVWFQNARQKARK,0.108 ± 0.081
16,SSRTRFTDYQLRVLPDFFDTNAYPKDDEIEQLSTVLNLPTRVIVVWFQNARQKARK,-0.708 ± 0.14
17,SSRTRFTDYQLRVLYDFFDTNAYPKDDEIEQLSTVLNLPTRVIVVWFQNARQKARK,-0.27 ± 0.18
18,SSRTRFTDYQLRVLSDFFDTNAYPKDDEIEQLSTVLNLPTRVIVVWFQNARQKARK,-0.004 ± 0.087
19,SSRTRFTDYQLRVLMDFFDTNAYPKDDEIEQLSTVLNLPTRVIVVWFQNARQKARK,0.058 ± 0.15
20,SSRTRFTDYQLRVLFDFFDTNAYPKDDEIEQLSTVLNLPTRVIVVWFQNARQKARK,-0.186 ± 0.15
21,SSRTRFTDYQLRVLQDFFDTNAYPKDDEIEQLSTVLNLPTRVIVVWFQNARQKARS,-0.366 ± 0.15
22,SSRTRFTDYQLRVLQDFFDTNAYPKDDEIEQLSTVLNLPTRVIVVWFQNARQKARE,-0.547 ± 0.29
23,SSRTGFTDYQLRVLQDFFDTNAYPKDDEIEQLSTVLNLPTRVIVVWFQNARQKARK,-0.109 ± 0.11
24,SSRTDFTDYQLRVLQDFFDTNAYPKDDEIEQLSTVLNLPTRVIVVWFQNARQKARK,0.338 ± 0.29

row,Variant,abundance fitness
1,SSRTRFTDYQLRVLQDFFDTNAYPKDDEIEQLSTVLNLPTRVLVVWFQNARQKARK,-0.059 ± 0.1
2,SSRTRFTDYQLRVLQIFFDTNAYPKDDEIEQLSTVLNLPTRVIVVWFQNARQKARK,-0.644 ± 0.21
3,SSRTRFTDYQLRVLQEFFDTNAYPKDDEIEQLSTVLNLPTRVIVVWFQNARQKARK,0.014 ± 0.11
4,SSRTRFTDYQLRVLQDFFDTNAYPKDDEIEQLSTVLNLPTRVIVVWFQNARQGARK,0.023 ± 0.073
5,SSRTRFTDYQLRVLQDFFDTNAYPKDDEIEQLSTVLNLPTRVIVVWFQNARQLARK,0.144 ± 0.085
6,SSRTRFTDYQLRVLQDFFDTNAYPKDDEIEQLITVLNLPTRVIVVWFQNARQKARK,-1.04 ± 0.21
7,SSRTRFTDYQLRVLQDFFDTNAYPKDDEIEQLHTVLNLPTRVIVVWFQNARQKARK,-0.003 ± 0.21
8,SSRTRFTDYQLRVLQDFFDTNAYPKDDEIEQLSTVLNLPPRVIVVWFQNARQKARK,-0.254 ± 0.28
9,SSRTRFTDYQLRVLQDFFDTNAYPKDDEIEQLSTCLNLPTRVIVVWFQNARQKARK,0.02 ± 0.17
10,SSRTRFTDYQLRVLQDFFDTNAYPKDDEIEQLSTSLNLPTRVIVVWFQNARQKARK,0.03 ± 0.091
11,SSRTRFTDYQLRVLQDFFDTNAYPKDDEIEQLSTVLNLPTRVIVVWWQNARQKARK,-0.452 ± 0.14
12,SSRTRFTDYQLRVLQDFFDTNAYPKDDEIEQLSTVLNLPTRVIVVWAQNARQKARK,-0.406 ± 0.12
13,SSRTRFTDYQLRVLQDAFDTNAYPKDDEIEQLSTVLNLPTRVIVVWFQNARQKARK,-0.006 ± 0.097
14,SSRTRFTDYQLRVLQDLFDTNAYPKDDEIEQLSTVLNLPTRVIVVWFQNARQKARK,-0.12 ± 0.09
15,SSRTRFTDYQLRVLQDIFDTNAYPKDDEIEQLSTVLNLPTRVIVVWFQNARQKARK,-0.135 ± 0.18
16,SSRTRFTCYQLRVLQDFFDTNAYPKDDEIEQLSTVLNLPTRVIVVWFQNARQKARK,-0.136 ± 0.14
17,SSRTRFTTYQLRVLQDFFDTNAYPKDDEIEQLSTVLNLPTRVIVVWFQNARQKARK,-0.257 ± 0.11
18,SSRTRFTDYQLRVLQDFFDTNAYPDDDEIEQLSTVLNLPTRVIVVWFQNARQKARK,-0.177 ± 0.13
19,SSRTRFTDYQLRVLQDFFDTNAYPNDDEIEQLSTVLNLPTRVIVVWFQNARQKARK,-0.156 ± 0.15
20,SSRTRFVDYQLRVLQDFFDTNAYPKDDEIEQLSTVLNLPTRVIVVWFQNARQKARK,-0.299 ± 0.11
21,SSRTRFTDYQLRVLQDFEDTNAYPKDDEIEQLSTVLNLPTRVIVVWFQNARQKARK,-0.486 ± 0.15
22,SSRTRFTDYQLRVLQDFTDTNAYPKDDEIEQLSTVLNLPTRVIVVWFQNARQKARK,-0.449 ± 0.074
